Assay [1] deals with T1, human RYK on the surface of human tumor cell lines (human, UniProt P34925 46-607).
T1 construct: whole, on cells; Endogenous expression
The experiment in a line: flow cytometry, MCF7 cells (breast), 5 ug/ml 2-D11-Alexa647; line unmarked (no staining). How it is done:
(§1) Table 1 provides the flow cytometry data on various cancer cell lines stained with fluorochrome-conjugated 2-D11, as depicted in FIG. 8. The name of each cell line is listed in the first column and the tissue of origin is listed in the second column. Binding of the 2-D11 mAb to human RYK was assessed by flow cytometric staining and analysis by staining on ice for 20 minutes with 5 μg/ml of 2-D11 anti-human RYK-Alexa647 conjugated mAb or equal amounts of isotype matched control mAb, washed, and analyzed. The median fluorescence intensity (MFI) of 2-D11 stained cells is listed in the middle column and the MFI of isotype control stained cells are listed in the in the adjacent column. Cell lines were scored as “++”, “+”, or neg (unmarked with “+”) lines based on the ratio of median fluorescence intensity (MFI) of stained cells relative to the MFI of isotype control stained cells (MFIR).
(§2) The name of each cell line is listed in the first column and the tissue of origin is listed in the second column. Binding of the 2-D11 mAb to human RYK was assessed by flow cytometric staining and analysis by staining on ice for 20 minutes with 5 μg/ml of 2-D11 anti-human RYK-Alexa647 conjugated mAb or equal amounts of isotype matched control mAb, washed and analyzed. […]

The target in assay [2] is T1, human RYK on the surface of human tumor …. The experiment in a line: flow cytometry, SK-MES-1 cells (lung), 5 ug/ml 2-D11-Alexa647; line unmarked (no staining). As to the method:
as §1, §2

Assay [3] shares this target. The experiment in a line: flow cytometry, H446 cells (lung), 5 ug/ml 2-D11-Alexa647. How it is done:
as §1, §2

For assay [4] the target is unchanged. The assay is described as follows: flow cytometry, PC3 cells (prostate), 5 ug/ml 2-D11-Alexa647; line unmarked (no staining). How it is done:
as §1, §2

The target is the same in assay [5]. The experiment in a line: flow cytometry, NCI H1155 cells (lung), 5 ug/ml 2-D11-Alexa647; line unmarked (no staining). As to the method: as §1, §2
Assay [6] has the same target. The assay is described as follows: flow cytometry, A549 cells (lung), 5 ug/ml 2-D11-Alexa647. As to the method:
as §1, §2

Assay [7] shares this target. The experiment in a line: flow cytometry, K562 cells (CML), 5 ug/ml 2-D11-Alexa647. As to the method: as §1, §2
Assay [8] has the same target. The assay is described as follows: flow cytometry, RAMOS cells (Burkitt NHL), 5 ug/ml 2-D11-Alexa647; line unmarked (no staining). How it is done: as §1, §2
The target is the same in assay [9]. The assay is described as follows: flow cytometry, COLO 829 cells (melanoma), 5 ug/ml 2-D11-Alexa647. How it is done: as §1, §2
Assay [10] shares this target. The experiment in a line: flow cytometry, SK-OV-3 cells (ovarian), 5 ug/ml 2-D11-Alexa647; line unmarked (no staining). As to the method: as §1, §2
Assay [11] has the same target. The assay is described as follows: flow cytometry, SW948 cells (colon), 5 ug/ml 2-D11-Alexa647; line unmarked (no staining). As to the method: as §1, §2
For assay [12] the target is unchanged. The assay is described as follows: flow cytometry, U937 cells (monocyte cancer), 5 ug/ml 2-D11-Alexa647; line unmarked (no staining). As to the method: as §1, §2
For assay [13] the target is unchanged. The experiment in a line: flow cytometry, NCI H929 cells (melanoma as printed), 5 ug/ml 2-D11-Alexa647; line unmarked (no staining). How it is done: as §1, §2
Assay [14] has the same target. The experiment in a line: flow cytometry, H292 cells (lung), 5 ug/ml 2-D11-Alexa647; line unmarked (no staining). How it is done:
as §1, §2

Assay [15] has the same target. The experiment in a line: flow cytometry, T47-D cells (breast), 5 ug/ml 2-D11-Alexa647. How it is done:
as §1, §2

Assay [16] has the same target. The assay is described as follows: flow cytometry, A673 cells (Ewings sarcoma), 5 ug/ml 2-D11-Alexa647. As to the method:
as §1, §2

The target is the same in assay [17]. The assay is described as follows: flow cytometry, HELA cells (ovarian as printed), 5 ug/ml 2-D11-Alexa647; line unmarked (no staining). How it is done:
as §1, §2

For assay [18] the target is unchanged. The assay is described as follows: flow cytometry, HS-578T cells (breast), 5 ug/ml 2-D11-Alexa647. How it is done:
as §1, §2

Assay [19] shares this target. The assay is described as follows: flow cytometry, CAPAN-2 cells (pancreas), 5 ug/ml 2-D11-Alexa647; line unmarked (no staining). How it is done: as §1, §2
Assay [20] shares this target. The assay is described as follows: flow cytometry, NALM6 cells (ALL), 5 ug/ml 2-D11-Alexa647; line unmarked (no staining). How it is done: as §1, §2

From patent publication US20250027945A1 (University of California, published 2025) come the findings set out here.

T1 sequence (P34925 46-607 limits assumed, form in doubt): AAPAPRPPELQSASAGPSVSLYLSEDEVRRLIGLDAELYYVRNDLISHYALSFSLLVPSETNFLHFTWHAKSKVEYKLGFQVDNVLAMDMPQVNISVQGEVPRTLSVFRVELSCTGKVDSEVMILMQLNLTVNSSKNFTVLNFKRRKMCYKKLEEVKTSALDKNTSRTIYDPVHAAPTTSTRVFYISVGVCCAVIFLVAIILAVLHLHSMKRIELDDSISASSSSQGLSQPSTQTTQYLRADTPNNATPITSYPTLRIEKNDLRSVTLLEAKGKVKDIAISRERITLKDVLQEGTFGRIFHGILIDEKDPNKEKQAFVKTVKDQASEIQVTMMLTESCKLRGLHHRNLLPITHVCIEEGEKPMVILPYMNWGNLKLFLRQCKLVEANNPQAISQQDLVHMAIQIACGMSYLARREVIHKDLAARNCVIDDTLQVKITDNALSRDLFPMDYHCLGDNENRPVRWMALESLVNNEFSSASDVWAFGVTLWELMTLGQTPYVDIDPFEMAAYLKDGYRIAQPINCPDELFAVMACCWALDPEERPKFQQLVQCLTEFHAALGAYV

B1: 2-D11 anti-human RYK mAb (antibody, V domains shown)
VH: QVQLKESGPGLVAPSQSLSITCSVSGFSLNDYGVNWVRQPPGKDLEWLGMIWGDGVTEYNSTLKSRLSISKDNSKSQVFLKMNNLQTEDTARYYCVRQGSGVWFAHWGQGTLVSVSS
VL: DVLVTQTPLSLPVSLGDQASISCRSSQTIVHSNGNTYLEWYLQKPGQSPKLLIYKVSNRFSGVPDRFSGSGSGTDFTLKISRVEAEDLGIYYCFQGSHVPYTFGGGTKLEIK
notes: Mouse hybridoma mAb, kappa light chain, detected with anti-mouse IgG; also called mAb 2-D11; 2-D11 anti-human RYK-Alexa647 conjugated mAb
As to B1, the “MFIR (MFI ratio to isotype control)” value in assay [1] is 1.4; in assay [2] it was 1.1; in [3] it was 2.6; in assay [4] it was 1.2; in assay [5], 1.3; in assay [6], 1.5. Further, the “MFIR (MFI ratio to isotype control)” value in [7] was 1.5; in assay [8], 1.1; in [9], 2.3; in assay [10], 1.1; in [11], 1.1; in assay [12] it was 1.2. Moreover, the “MFIR (MFI ratio to isotype control)” value in assay [13] amounted to 1.2; in [14], 1.3; in assay [15], 2; in assay [16] it was 1.5; in assay [17] it was 1.1; in assay [18], 2.7. Also, the “MFIR (MFI ratio to isotype control)” value in assay [19] and in assay [20] was 1.3 each time.
